In the supplement of paper PMC10065799, “High-throughput profiling of sequence recognition by tyrosine kinases and SH2 domains using bacterial peptide display” (eLife, 2023):

target: Hck (UniProt P08631); assay: phosphorylation enrichment, bacterial display (enrichment ratio); higher = better substrate or ligand; peptides without Tyr show the background
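Also: 11-residue human phosphosite peptides and single-mutation variants displayed on the E. coli surface, counted by deep sequencing, each peptide's frequency after selection divided by its frequency in the unselected input library; frequency after pTyr selection over input frequency; kinase dosed for 20-30% of maximal phosphorylation in three min.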

Hck, sequence (P08631 whole entry, looked up): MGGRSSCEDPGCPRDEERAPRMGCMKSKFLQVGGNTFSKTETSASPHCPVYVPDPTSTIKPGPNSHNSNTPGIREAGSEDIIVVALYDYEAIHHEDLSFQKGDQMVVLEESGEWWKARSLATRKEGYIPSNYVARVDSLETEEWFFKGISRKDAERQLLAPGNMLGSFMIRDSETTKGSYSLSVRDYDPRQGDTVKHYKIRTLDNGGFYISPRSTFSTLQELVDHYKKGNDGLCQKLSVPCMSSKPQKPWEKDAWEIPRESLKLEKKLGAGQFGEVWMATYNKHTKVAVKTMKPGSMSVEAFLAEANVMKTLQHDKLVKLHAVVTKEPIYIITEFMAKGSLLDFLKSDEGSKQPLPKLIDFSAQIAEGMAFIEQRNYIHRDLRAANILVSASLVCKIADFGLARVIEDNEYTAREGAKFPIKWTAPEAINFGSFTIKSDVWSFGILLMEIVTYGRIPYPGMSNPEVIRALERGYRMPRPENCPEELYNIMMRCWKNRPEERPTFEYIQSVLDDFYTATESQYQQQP

Row | Sequence | phosphorylation enrichment
1 | EQRRAYLEGTC [HLA-C_Y183_L180R] | 0.524
2 | DSDTDYGSGFP [RNASEH2A_Y206_L202S_YF] | 0.566
3 | LVRPPYSFLAL [FOXI1_Y126_S129L_YF] | 0.727
4 | MMVGAYSSLEG [ECPAS_Y470_T472S] | 0.832
5 | KRAAIYNPVIF [RHO_Y301_S297R_YF] | 4.07
6 | LHAAAYRNALA [UQCRC2_Y182] | 0.484
7 | AALLNYKAGRD [GRIN2A_Y737_V734L] | 0.527
8 | SHPSSYTTHPQ [NIPBL_Y195] | 0.46
9 | LTGIAYSLPHW [SLC22A14_Y291] | 1.08
10 | SLFNGYVFSGM [NEIL3_Y71_V76M_YF] | 0.531
11 | LNEVGYDDIGG [VCP_Y203] | 1.36
12 | PEADKYRLPFA [FGG_Y300_T303P_YF] | 0.648
13 | HSDYQYGQRSQ [PKP2_Y168_S169G] | 0.574
14 | QMQAAYQKVVA [HBD_Y131] | 0.47
15 | VDSAHYQLLET [DTX3L_Y385_K386Q] | 0.709
16 | LRAGVYREKDQ [DNM2_Y626_P627R] | 0.449
17 | LRVHSYKSMQP [DRC7_Y516] | 0.684
18 | RQEEEYKRFSE [SFSWAP_Y133_L136F] | 0.648
19 | RNYDTYTAGLS [RHBDD1_Y264] | 5.02
20 | TVLEPYTDPYY [ZC3H18_Y367_A368T] | 0.649
21 | FGFPGYQCKHF [TIMP3_Y177_S179C_YF] | 0.506
22 | CTLLPYFSARV [DGKE_Y269_YF] | 0.508
23 | VHLFAYDWISI [BEST1_Y227_G222V_YF] | 0.804
24 | KELAKYFKLHH [AK7_Y390_N389K_YF] | 0.484
25 | IGRHAYGDQYR [IDH1_Y135] | 0.327
26 | GLAELYEYKKK [CKAP5_Y1854] | 0.924
27 | NPQKSYFICLF [WAS_Y83_R86C_YF] | 0.448
28 | PTTKTYFPHFG [HBA1_Y43_D48G] | 0.372
29 | AHAGEYGAVAL [HBA1_Y25_E28V] | 3.27

target: Jak2 (UniProt O60674); assay: as above
Sequence (O60674 whole entry, looked up): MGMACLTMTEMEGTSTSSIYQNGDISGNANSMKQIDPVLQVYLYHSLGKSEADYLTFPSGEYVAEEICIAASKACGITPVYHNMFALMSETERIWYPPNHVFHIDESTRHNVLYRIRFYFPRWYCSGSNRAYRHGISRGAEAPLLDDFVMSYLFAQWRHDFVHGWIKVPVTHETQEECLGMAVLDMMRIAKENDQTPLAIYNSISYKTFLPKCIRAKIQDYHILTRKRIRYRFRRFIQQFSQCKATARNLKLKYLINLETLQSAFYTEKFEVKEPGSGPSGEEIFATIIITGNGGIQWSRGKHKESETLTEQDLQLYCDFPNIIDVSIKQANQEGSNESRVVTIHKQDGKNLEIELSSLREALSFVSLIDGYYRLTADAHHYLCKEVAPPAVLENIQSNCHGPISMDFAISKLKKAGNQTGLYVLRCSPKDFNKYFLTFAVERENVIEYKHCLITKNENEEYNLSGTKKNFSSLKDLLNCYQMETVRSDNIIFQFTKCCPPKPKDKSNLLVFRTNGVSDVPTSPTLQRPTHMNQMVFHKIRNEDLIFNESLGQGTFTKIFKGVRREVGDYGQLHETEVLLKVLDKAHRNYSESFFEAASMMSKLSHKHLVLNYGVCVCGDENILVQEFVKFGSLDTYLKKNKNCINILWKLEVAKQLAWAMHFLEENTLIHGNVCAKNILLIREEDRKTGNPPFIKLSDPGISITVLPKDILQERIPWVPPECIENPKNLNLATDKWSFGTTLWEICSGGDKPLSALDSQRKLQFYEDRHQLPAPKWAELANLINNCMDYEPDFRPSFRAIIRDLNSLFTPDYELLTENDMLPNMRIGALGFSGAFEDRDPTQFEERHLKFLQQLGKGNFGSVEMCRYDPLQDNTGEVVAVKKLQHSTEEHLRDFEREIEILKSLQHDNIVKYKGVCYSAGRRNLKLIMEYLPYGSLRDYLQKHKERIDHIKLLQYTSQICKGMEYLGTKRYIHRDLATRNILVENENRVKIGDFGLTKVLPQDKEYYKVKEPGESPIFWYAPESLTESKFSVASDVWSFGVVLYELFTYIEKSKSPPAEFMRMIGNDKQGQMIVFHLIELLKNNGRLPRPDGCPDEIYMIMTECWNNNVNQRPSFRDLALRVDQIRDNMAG

Row | Sequence | phosphorylation enrichment
30 | EQRRAYLEGTC [HLA-C_Y183_L180R] | 0.917
31 | DSDTDYGSGFP [RNASEH2A_Y206_L202S_YF] | 0.905
32 | LVRPPYSFLAL [FOXI1_Y126_S129L_YF] | 0.71
33 | MMVGAYSSLEG [ECPAS_Y470_T472S] | 0.563
34 | KRAAIYNPVIF [RHO_Y301_S297R_YF] | 0.738
35 | LHAAAYRNALA [UQCRC2_Y182] | 0.594
36 | AALLNYKAGRD [GRIN2A_Y737_V734L] | 0.508
37 | SHPSSYTTHPQ [NIPBL_Y195] | 0.492
38 | LTGIAYSLPHW [SLC22A14_Y291] | 0.997
39 | SLFNGYVFSGM [NEIL3_Y71_V76M_YF] | 1.08
40 | LNEVGYDDIGG [VCP_Y203] | 1.9
41 | PEADKYRLPFA [FGG_Y300_T303P_YF] | 0.731
42 | HSDYQYGQRSQ [PKP2_Y168_S169G] | 0.446
43 | QMQAAYQKVVA [HBD_Y131] | 0.497
44 | VDSAHYQLLET [DTX3L_Y385_K386Q] | 0.891
45 | LRAGVYREKDQ [DNM2_Y626_P627R] | 0.38
46 | LRVHSYKSMQP [DRC7_Y516] | 0.476
47 | RQEEEYKRFSE [SFSWAP_Y133_L136F] | 1.11
48 | RNYDTYTAGLS [RHBDD1_Y264] | 0.677
49 | TVLEPYTDPYY [ZC3H18_Y367_A368T] | 0.805
50 | FGFPGYQCKHF [TIMP3_Y177_S179C_YF] | 0.831
51 | CTLLPYFSARV [DGKE_Y269_YF] | 1.09
52 | VHLFAYDWISI [BEST1_Y227_G222V_YF] | 1.04
53 | KELAKYFKLHH [AK7_Y390_N389K_YF] | 0.487
54 | IGRHAYGDQYR [IDH1_Y135] | 0.534
55 | GLAELYEYKKK [CKAP5_Y1854] | 0.393
56 | NPQKSYFICLF [WAS_Y83_R86C_YF] | 1.13
57 | PTTKTYFPHFG [HBA1_Y43_D48G] | 0.958
58 | AHAGEYGAVAL [HBA1_Y25_E28V] | 0.511

target: MERTK (UniProt Q12866); assay: as above
Sequence (Q12866 whole entry, looked up): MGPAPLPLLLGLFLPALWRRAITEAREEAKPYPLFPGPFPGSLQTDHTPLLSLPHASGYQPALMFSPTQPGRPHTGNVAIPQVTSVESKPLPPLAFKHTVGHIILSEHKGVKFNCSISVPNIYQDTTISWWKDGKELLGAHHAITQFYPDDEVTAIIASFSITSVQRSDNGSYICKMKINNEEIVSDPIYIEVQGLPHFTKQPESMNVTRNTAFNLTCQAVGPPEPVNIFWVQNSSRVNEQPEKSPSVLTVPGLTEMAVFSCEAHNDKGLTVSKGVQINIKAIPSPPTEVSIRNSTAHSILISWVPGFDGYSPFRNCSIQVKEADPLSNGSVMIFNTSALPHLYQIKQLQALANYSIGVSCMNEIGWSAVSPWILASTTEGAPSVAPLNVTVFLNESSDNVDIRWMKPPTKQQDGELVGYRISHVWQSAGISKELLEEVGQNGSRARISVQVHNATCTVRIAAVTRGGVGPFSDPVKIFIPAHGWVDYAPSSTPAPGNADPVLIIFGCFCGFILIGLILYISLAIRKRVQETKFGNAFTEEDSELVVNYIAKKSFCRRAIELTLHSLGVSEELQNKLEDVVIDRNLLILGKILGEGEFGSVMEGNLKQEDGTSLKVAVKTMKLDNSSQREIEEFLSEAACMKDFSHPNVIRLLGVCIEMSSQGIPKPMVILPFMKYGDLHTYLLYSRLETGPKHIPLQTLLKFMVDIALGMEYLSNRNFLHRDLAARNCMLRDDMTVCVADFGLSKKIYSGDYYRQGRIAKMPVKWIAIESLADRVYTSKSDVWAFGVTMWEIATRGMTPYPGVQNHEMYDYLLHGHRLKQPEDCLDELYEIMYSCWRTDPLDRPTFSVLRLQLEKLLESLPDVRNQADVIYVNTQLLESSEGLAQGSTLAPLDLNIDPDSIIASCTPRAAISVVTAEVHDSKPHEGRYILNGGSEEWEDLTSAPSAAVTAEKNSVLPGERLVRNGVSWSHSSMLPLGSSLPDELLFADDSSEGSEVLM

Row | Sequence | phosphorylation enrichment
59 | EQRRAYLEGTC [HLA-C_Y183_L180R] | 0.47
60 | DSDTDYGSGFP [RNASEH2A_Y206_L202S_YF] | 0.455
61 | LVRPPYSFLAL [FOXI1_Y126_S129L_YF] | 1.05
62 | MMVGAYSSLEG [ECPAS_Y470_T472S] | 1.97
63 | KRAAIYNPVIF [RHO_Y301_S297R_YF] | 2.69
64 | LHAAAYRNALA [UQCRC2_Y182] | 0.407
65 | AALLNYKAGRD [GRIN2A_Y737_V734L] | 0.468
66 | SHPSSYTTHPQ [NIPBL_Y195] | 0.463
67 | LTGIAYSLPHW [SLC22A14_Y291] | 3.24
68 | SLFNGYVFSGM [NEIL3_Y71_V76M_YF] | 0.435
69 | LNEVGYDDIGG [VCP_Y203] | 0.827
70 | PEADKYRLPFA [FGG_Y300_T303P_YF] | 0.442
71 | HSDYQYGQRSQ [PKP2_Y168_S169G] | 0.439
72 | QMQAAYQKVVA [HBD_Y131] | 0.412
73 | VDSAHYQLLET [DTX3L_Y385_K386Q] | 1.13
74 | LRAGVYREKDQ [DNM2_Y626_P627R] | 0.398
75 | LRVHSYKSMQP [DRC7_Y516] | 0.423
76 | RQEEEYKRFSE [SFSWAP_Y133_L136F] | 0.682
77 | RNYDTYTAGLS [RHBDD1_Y264] | 0.841
78 | TVLEPYTDPYY [ZC3H18_Y367_A368T] | 0.524
79 | FGFPGYQCKHF [TIMP3_Y177_S179C_YF] | 0.542
80 | CTLLPYFSARV [DGKE_Y269_YF] | 0.424
81 | VHLFAYDWISI [BEST1_Y227_G222V_YF] | 4.12
82 | KELAKYFKLHH [AK7_Y390_N389K_YF] | 0.51
83 | IGRHAYGDQYR [IDH1_Y135] | 0.314
84 | GLAELYEYKKK [CKAP5_Y1854] | 0.303
85 | NPQKSYFICLF [WAS_Y83_R86C_YF] | 0.43
86 | PTTKTYFPHFG [HBA1_Y43_D48G] | 0.397
87 | AHAGEYGAVAL [HBA1_Y25_E28V] | 0.389

test system: c-Abl (mouse); assay: as above

Row | Sequence | phosphorylation enrichment
88 | EQRRAYLEGTC [HLA-C_Y183_L180R] | 0.822
89 | DSDTDYGSGFP [RNASEH2A_Y206_L202S_YF] | 0.755
90 | LVRPPYSFLAL [FOXI1_Y126_S129L_YF] | 0.526
91 | MMVGAYSSLEG [ECPAS_Y470_T472S] | 0.785
92 | KRAAIYNPVIF [RHO_Y301_S297R_YF] | 0.741
93 | LHAAAYRNALA [UQCRC2_Y182] | 0.303
94 | AALLNYKAGRD [GRIN2A_Y737_V734L] | 0.454
95 | SHPSSYTTHPQ [NIPBL_Y195] | 0.417
96 | LTGIAYSLPHW [SLC22A14_Y291] | 1.41
97 | SLFNGYVFSGM [NEIL3_Y71_V76M_YF] | 0.697
98 | LNEVGYDDIGG [VCP_Y203] | 1.09
99 | PEADKYRLPFA [FGG_Y300_T303P_YF] | 0.634
100 | HSDYQYGQRSQ [PKP2_Y168_S169G] | 0.484
101 | QMQAAYQKVVA [HBD_Y131] | 0.422
102 | VDSAHYQLLET [DTX3L_Y385_K386Q] | 0.728
103 | LRAGVYREKDQ [DNM2_Y626_P627R] | 0.514
104 | LRVHSYKSMQP [DRC7_Y516] | 0.785
105 | RQEEEYKRFSE [SFSWAP_Y133_L136F] | 0.831
106 | RNYDTYTAGLS [RHBDD1_Y264] | 0.729
107 | TVLEPYTDPYY [ZC3H18_Y367_A368T] | 0.568
108 | FGFPGYQCKHF [TIMP3_Y177_S179C_YF] | 0.716
109 | CTLLPYFSARV [DGKE_Y269_YF] | 1.11
110 | VHLFAYDWISI [BEST1_Y227_G222V_YF] | 0.69
111 | KELAKYFKLHH [AK7_Y390_N389K_YF] | 0.439
112 | IGRHAYGDQYR [IDH1_Y135] | 0.462
113 | GLAELYEYKKK [CKAP5_Y1854] | 0.464
114 | NPQKSYFICLF [WAS_Y83_R86C_YF] | 1
115 | PTTKTYFPHFG [HBA1_Y43_D48G] | 0.491
116 | AHAGEYGAVAL [HBA1_Y25_E28V] | 0.517
